Test results from the supplement of paper PMC10266784.

B1: library; numbered along this chain (parent)
chain: MAAAAAAAAEQQSSNGPVKKSMREKAVERRSVNKEHNSNFKAGYIPIDEDRLHKTGLRGRKGNLAICVIILLFILAVINLIITLVIWAVIRIGPNGCDSMEFHESGLLRFKQVSDMGVIHPLYKSTVGGRRNENLVITGNNQPIVFQQGTTKLSVENNKTSITSDIGMQFFDPRTQNILFSTDYETHEFHLPSGVKSLNVQKASTERITSNATSDLNIKVDGRAIVRGNEGVFIMGKTIEFHMGGNMELKAENSIILNGSVMVSTTRLPSSSSGDQLGSGDWVRYKLCMCADGTLFKVQVTSQNMGCQISDNPCGNTH

Variants of: B1
Assay: SGCB cell-surface expression functional score (HA stain, bin4 vs bin1, normalised to synonymous) (log10 ratio); higher = more cell-surface SGCB (functional)
Outline: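 Human beta-sarcoglycan, tagged with HA and fused to YFP, was built into codon-saturation libraries and delivered by lentivirus at MOI <0.1 into HEK293 cells that stably express alpha-, gamma- and delta-sarcoglycan. After 72 hours, YFP-positive cells were sorted and grown for 5–7 days, then stained on ice with Alexa Fluor 647 anti-HA, fixed, sorted into four 5% intensity bins and amplicon-sequenced. Each variant's functional score is the log ratio of its frequency in the highest bin to that in the lowest bin, taken as the median across codons and transductions. Transductions were done in duplicate, and synonymous variants were scaled per section to mean 0, SD 0.5.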

SGCB cell-surface expression functional score (log10), by site and new letter:
N246: H 0.84; Q 0.45; R 0.2; T 0.94; D 0.51; F -1.49; C -0.02; G 0.45; W -0.217; L 0.49; Y 0.19; V 0.39; A 0.82; S -0.19; P 0.63; I 0.32; E -0.206; M 0.42; K -0.01
G236: H -1.67; M -2.18; I -1.64; N -1.82; R -1.3; T -0.62; Q 0.48; D -0.43; P -1.06; V -1.25; Y -1.44; K -2; F -1.96; L -1.75; S -0.08; W -2.11; C -1.64; E -1.08; A 0.11
M235: Q 0.65; A 0.36; V 0.18; I 0.26; G 0.75; D -0.066; K 0.78; Y 0.92; H 0.69; T 0.37; F 0.84; R 0.56; E 0; S 0.53; L 0.66; N 1.02; C 0.86; W 0.91; P -0.94
F241: Q -1.74; W 1.2; Y -0.82; K -1.17; T -0.91; S -1.23; P -0.89; M 0.82; C 0.62; R -1.19; H -2.08; V -0.37; A 0.14; I 0.2; E 0.03; D -0.57; N -0.57; G -0.98; L 0.35
G244: V 0.12; Y -0.22; A 0.67; M 1.17; R 0.41; K 0.23; F 1; D 0.99; S 0.77; E 0.47; W 0.55; Q 0.86; I -0.24; C 0.21; P 0.1; H 0.75; N 0.77; L 0.86; T 0.66
E248: W 0.116; D 0.58; A 0.29; N 0.44; H 0.87; V 0.52; Q -0.13; R 0.67; G 0.62; P 0.43; Y 0.41; I 0.78; K 0.73; L 0.48; T 0.54; F 0.95; C -0.97; M 0; S 0.4
L249: A 0.55; Y 0.23; H -1.14; W 0.63; T 0; I 0.85; K -1.29; F 0.71; P -0.41; R -0.27; Q -0.07; D -1.06; G 0.21; E -0.69; C 0.2; M -0.1; S 0.16; N -0.2; V 0.75
I239: E 0; M 0.83; W -0.02; H -0.15; G -0.41; V 0.12; Q -1.16; T 0.15; C 0.46; R -1.04; L 0.49; S -1.1; N -1.44; D -1.13; P -1.08; K -1.38; F -0.45; A 0.09; Y -1.52
K237: N 0.32; A 0.85; Y 0.48; V 0.29; Q -0.79; I 0.24; R 0.73; M 0.8; C 0.61; G 0.05; P 0.32; S 0.2; W 0.453; T 0.58; D 0.73; E 0.47; L 0.6; F 0.86; H -0.04
T238: W -0.07; Q 0.63; A 0.6; D 0.72; L 0.67; E 0.87; C 0.64; K 0.3; G 0.71; F 0.86; R 0.94; V 0.95; S 0.64; N 0.67; M 0.93; P -0.64; I 0.62; H 0.24; Y -0.01
V232: N -1.99; S -0.67; W -1.85; R -1.12; Y -1.09; Q -1.69; T 0; P -0.64
F233: D -0.146; T 0.7; E 0.63; N 0.87; M 1.15; S 0.62; Q 0.77; Y 0.56; I 0.99; L 0.47; C -0.13; P -1.53; R 0.69; A 0.97; H 0.36; G -0.1; W 0.09; V 0.18; K 0.34
M247: F 1.03; N -0.35; Q -0.04; R -0.83; G 0.38; H 0.26; C 0.91; K -1.56; I 0.34; S 0.26; L 0.8; V 0.47; P -1.08; E -0.44; T -0.51; D -1.1; A 0.65; W -1.52; Y 1.22
H242: N 0.39; K 1.04; G 0.87; T 0.66; A 0.4; D 0.83; I 0.92; L 0.7; F 0.89; C 1; V 0.71; M 0.2; P -0.67; E 0.36; S 0.93; Q 0.68; R 0.39; W 0.6; Y 0.47
E240: W 0.422; S 0.98; M 1.09; R 0.44; D 0.58; I 0.23; T 1; C 0.37; N 0.97; L 0.37; H 0.77; F 0.84; G 0.76; V 0.99; Q 1; K 0.46; Y 0.83; P -0.9; A 0.93
M243: W -0.253; G 0.64; S 0.81; T 0.83; Y 0.13; N 1.08; C 0.71; D -0.38; V 0.49; R -0.97; L 0.43; I 0.18; F 1.18; E 0.01; Q 0.88; H 0.52; P 0.21; K -0.64; A 0.83
I234: H -1.04; E -1.49; V 0.49; C 0.01; D -0.5; Y -0.62; R -1.51; S -0.92; K -1.32; L 0.43; A -0.02; F 1.03; Q -1.65; N -1.67; T 0.09; G -1; W 0.32; M 0.48; P -0.22
K250: C 0.5; D 0.83; A 0.91
G245: A 0.6; S 0.78; T 0.57; M 1.44; F -0.16; Q 0.99; L 0.83; D 0.77; V -0.07; E 1.16; I 0.57; N 0.59; C 0.61; Y 1.09; K 0.91; P 0.4; H 0.52; W 0.92; R 0.49
